From the RNAGym collection of RNA variant scans (doi:10.1073/pnas.2313332121)

B1: TPR t1 (parent)
chain: GACCAAUCUGCCCUCAGAGCUCGAGAACAUCUUCGGAUGCAGAGGAGGCAGGCUUCGGUGGCGCGAUAGCGCCAACGUCCUCAACCUCCAAUGCAUCCCACCACAUGAUGAUGCCUGAAGAGCCUUGGUUUUUUG

Variants of: B1
Test: polymerase ribozyme fitness, log enrichment relative to wild type (log ratio); higher = more active; in vitro selection for triplet polymerase activity
Summary of the method: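 Mutant libraries of each subunit of a heterodimeric triplet polymerase ribozyme were built by PCR and transcribed. Each library went through one round of in vitro selection in triplicate: annealing with biotinylated primer, partner subunit and triplets, frozen incubation at −7 °C, gel excision of extended constructs, streptavidin-bead capture and RT-PCR. Input and output libraries were Illumina-sequenced; only genotypes with ≥10 input reads and ≥1 read per output were kept. Fitness is log2(genotype enrichment/wild-type enrichment), using inverse-variance-weighted replicate averages.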

| Variant | polymerase ribozyme fitness (log ratio) |
| --- | --- |
| U9A C11A G42U G61U | -1.6 |
| G10C G39A C56G G113U A118U | -4.76 |
| U9C C12G G60C U78C | -1.6 |
| G10C C13A C40A G42U G52U C72A | -5.16 |
| G10A G57U A90G U126A | -1.18 |
| U9G C115G | 1.35 |
| G10A C13U U38G C56U C82G | -1.27 |
| U9G U54A C97G U131C | -4.7 |
| U9G G39A A121U U131C | 2.2 |
| U9C C12A C86A C102A C104U C124A | -0.301 |
| U9C G42U C53G C56A C73A C88U | -1.43 |
| U9G C53U G107C | -5.76 |
| G10A A95U G122A | 0.0165 |
| G10A C12U G19U C85U C123U | -1.68 |
| U9C C20A G69C C101A | -6.63 |
| U9G U96G | -0.204 |
| G10A C40U G69C C123G | -0.405 |
| U9A U33A G36U C89G C124A | -5.28 |
| U9G A50U A74C G113C | -3.6 |
| U9A G39C C99U | -2.83 |
| U9A G19A G52U A105C A111G G120A | -5.2 |

| Variant | polymerase ribozyme fitness (log ratio) |
| --- | --- |
| U9A G63U | -0.179 |
| U9G U21A C97A | -4.03 |
| G10C C11U C13A A37U C70U | -0.31 |
| G10C C49G C64U A83G U125A | -3.57 |
| U9G C13A U59A C72A | -1.53 |
| U9G G45A | 0.293 |
| U9G G17A A18U A46U A84G U87A U112C G127C U134A | -2.66 |
| U9G C12G | 0.483 |
| U9C C80G | -5.3 |
| U9A U14A C64U | 0.0854 |
| U9G G65A C72G G122A C123G U129G | -5.67 |
| U9C G48C C101A G117A | -1.58 |
| U9C A29U G61A C88U C102U | -4.47 |
| U9A A46C A50C C82G | -0.971 |
| U9G C11A G52A G57C U116G A121G | 0.971 |
| G10A C88A A90G G122U U133G | 0.185 |
| G10C G47U C101A A103U | -6.38 |
| U9G G57A C79A | -1.03 |
| U9A C12U C15A C53G U54C U106G | -3.06 |
| U9C G57U | 0.0681 |
| G10A C11G C70G | -2.13 |

| Variant | polymerase ribozyme fitness (log ratio) |
| --- | --- |
| U9G G60A A90C C123U | 0.324 |
| U9G U14G G93A | -0.26 |
| U9C C13G C28G G45U G61A | -2.49 |
| G10C A27G C40U A121U | 0.906 |
| U9G C13A G48C C56A C72A U78A | -1.24 |
| G10A C56U A74C A75U G93U | -0.9 |
| U9C C31G U92A G93C C114A | -5.25 |
| U9A G48C G77A C88U U112A | 0.603 |
| G10A U32C C72G U87A U131A | -2.99 |
| U9G G42C G45A C85G | -4.6 |
| U9C U96A | 0.079 |
| U9A G71U U87A C89A U112G | -5.05 |
| U9G C31U C94G | -6.42 |
| U9G U30C G120C G127A | -3.41 |
| G10U A16C G44C C70U A111C U125G | -7.14 |
| U9C A43U | -0.741 |
| U9A G19U A46U C56G U133G | -4.95 |
| U9G G48A G93C | -1.01 |
| U9C C15A G44U G60C A91U A121G | -1.08 |
| U9G G77A U78C C98A G113C | -5.07 |
| U9C C53A C123G | 1.78 |

| Variant | polymerase ribozyme fitness (log ratio) |
| --- | --- |
| G10C C11G A103U | -3.76 |
| G10C C13A C64U C82U A83C | -1.29 |
| U9C C12U U81A C89A | -1.67 |
| U9G A16U C82U C88U A95U U130G | -0.874 |
| U9C A103C C104A | -2.12 |
| U9G C104U | 0.944 |
| G10A C97U | -0.852 |
| U9C C11U G17A | -3.22 |
| G10A C73U U116C | -1.59 |
| G10A C12G C22G C104G | -5.13 |
| G10C C12A G51A G127C | -4.99 |
| U9C G51C U81G U92C | -5.89 |
| G10C U38C C40U C64U C101A | -1.8 |
| U9G C40U G45U U129C G135A | -3.12 |
| G10A G44A G47A G61C | -3.22 |
| U9C C11U G17C A41U | -4.76 |
| G10C G45U G47U C73A G117A A119U | -5.46 |
| G10A G47A A68G U109C C123G | -6.84 |
| U9G C62U | -0.19 |
| G10C G42U G48A | -2.39 |
